Source: US20110159021A1 (Dana-Farber, published 2011)

The binders below were run against T1, HLA-A2 molecules on the surface of human T2 cells (human) (assay: peptide stability assay on T2 cells after Brefeldin A, flow cytometry with FITC anti-HLA-A2 mAb).
T1 construct: MHC class I molecule that the peptides load onto; also called HLA-A2.1; HLA-A*0201

Row | Binder | binding result
1 | YLFPQLISV (Heteroclitic variant of the spliced XBP1 367-375 peptide, synthetic; also called SP XBP1 #3M; XBP1 SP 3M) [heteroclitic spliced XBP1 367-375 (YLFPQLISV)] | binds

The binders below were run against T1, HLA-A2 molecules on the surface of … (assay: T2 peptide-binding assay; HLA-A2 up-regulation on T2 cells, 50 ug/ml peptide plus b2m, flow cytometry with FITC anti-HLA-A2 mAb).

Row | Binder | MFI (HLA-A2 mean fluorescence intensity)
2 | GILDNLDPV (also called SP XBP1 #1 peptide; SP XBP1 #1p) [SP XBP1 196-204 (GILDNLDPV)] | 762 MFI
3 | NISPWILAV (Native peptide of non-spliced XBP1, synthetic; also called XBP1 #2 peptide; XBP1 #2p) [XBP1 184-192 (NISPWILAV)] | 720 MFI
4 | ELFPQLISV (Native peptide of spliced XBP1, synthetic; also called SP XBP1 #3 peptide; SP XBP1 #3p) [SP XBP1 367-375 (ELFPQLISV)] | 785 MFI
5 | GLVGLIFAV (Native peptide of CD138, synthetic; also called CD138 #2p; CD138 #2 peptide) [CD138 260-268 (GLVGLIFAV)] | 690 MFI

What follows are binders tested against T1, HLA-A2 molecules on the surface of … (assay: T2 peptide-binding assay; HLA-A2 up-regulation on T2 cells, 50 ug/mL peptide plus b2m, flow cytometry with PE anti-HLA-A2 mAb).

Row | Binder | binding result
6 | LLLSLFVLGL [CS1-P1: CS1 236-245 (LLLSLFVLGL)] | binds
7 | LLVPLLLSL (Native peptide of CS1, synthetic) [CS1-P3: CS1 232-240 (LLVPLLLSL)] | binds
8 | TLIYILWQL (Native peptide of CS1, synthetic) [CS1-P4: CS1 9-17 (TLIYILWQL)] | binds
9 | SLFVLGLFL (Native peptide of CS1, synthetic) [CS1-P2: CS1 239-247 (SLFVLGLFL)] | binds

What follows are binders tested against T1, HLA-A2 molecules on the surface of … (assay: T2 peptide-binding assay; HLA-A2 up-regulation on T2 cells, flow cytometry).

Row | Binder | binding result
10 | KLLLENQLL (Native peptide of non-spliced XBP1, synthetic; also called XBP1 #5 peptide) [XBP1 110-118 (KLLLENQLL)] | binds
11 | LLREKTHGL (also called XBP1 #1 peptide) [XBP1 117-125 (LLREKTHGL)] | binds
12 | ILAVLTLQI (Native peptide of non-spliced XBP1, synthetic; also called XBP1 #3 peptide) [XBP1 189-197 (ILAVLTLQI)] | binds
